Molecular target: T1, NS3 of SEQ ID NO: 3 (HCV NS3 genotype 4a) (Hepatitis C virus genotype 4a, UniProt O39929)
T1 construct: T7 tag (N); 6-His tag (C); made in house; host or cells: E. coli Rosette (DE3) pLysS
Test: Differential static light scattering (DSLS), aggregation temperature of NS3 with peptide
Assay type: binding
Settings: NS3 of SEQ ID NO: 3 with peptide in 1:2 ratio, room temperature, two hours, shaking
Method: The binding of SEQ ID NO: 4 and its variants of SEQ ID NO: 6-20 to the NS3 of SEQ ID NO: 3 were determined by differential static light scattering method using Stargazer-2™ (Harbinger Biotechnology and Engineering Corporation, Toronto, Canada). The method assesses protein stability by monitoring aggregate formation upon gradual increase of temperatures. NS3 domain of SEQ ID NO: 3 stability upon binding to NS4A of SEQ ID NO: 4 was measured by monitoring denatured protein aggregation upon increasing temperature from 25 to 85° C. in 0.5° C. increments at 600 nm. […] The mixture and control were incubated at room temperature with gentle shaking for specified time. […]. Afterwards, 10 μL of the mixture was transferred into a clear bottom Nunc 384-well plate and covered by 10 μL paraffin oil to minimize evaporation. Protein aggregation was monitored by tracking the change in scattered light that was detected by a CCD camera. Snapshot images of the plate were taken every 0.5° C. The pixel intensities in a preselected region of each well were integrated using image analysis software to generate a value representative of the total amount of scattered light in that region. […] Aggregation was monitored and analyzed to assess the effect of NS4A of SEQ ID NO: 4 and its synthetic analogues of SEQ ID NO: 6-20 on the stability of the NS3 as an indicator of binding. […]

KKGSVVIVGRIVLSGKK [SEQ ID NO: 4, reference compound]
ΔTagg (Tagg shift, aggregation temperature): 2.83 °C

— patent US20200369727A1, “COMPOSITION AND METHOD FOR TREATING A PATIENT HAVING LIVER CIRRHOSIS” (priority 2019, published 2020)
